According to patent publication US20240002498A1 (TENEOBIO, published 2024):

What was measured:
cyno FOLR1 on CHO cells = biological target: T1, cyno FOLR1 on CHO cells (cyno (Cynomolgus macaque), UniProt A0A2K5U044 25-234); experiment: flow cytometry, CHO cells stably expressing cyno FOLR1
T1 construct: whole, on cells; also called cyFOLR1

[1] = biological target: T2, human Folate Receptor Alpha (FOLR1) on cells (human, UniProt P15328 25-234); experiment: flow cytometry, CHO cells stably expressing human FOLR1
T2 construct: whole, on cells; Endogenous on IGROV-1, OVCAR-3, SKOV-3, HT-29 cells; transfected on CHO cells; the cell is named under assay; also called FRα; FRa
T2 sequence (P15328 25-234): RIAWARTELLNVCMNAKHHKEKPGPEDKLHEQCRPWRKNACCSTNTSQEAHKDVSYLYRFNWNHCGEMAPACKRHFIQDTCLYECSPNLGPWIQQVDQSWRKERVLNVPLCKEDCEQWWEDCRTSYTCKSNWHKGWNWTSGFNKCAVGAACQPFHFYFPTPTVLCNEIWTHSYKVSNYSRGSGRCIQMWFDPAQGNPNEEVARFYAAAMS

T1 sequence (A0A2K5U044 entry or part of it): as the sequence (P15328 25-234) above, with I2T, W4R, R37K, A146P, H171Y counted along it

Binder | fold over background MFI (cyno FOLR1 on CHO cells) [fold over background] | fold over background MFI [1] [fold over background]
anti-FOLR1 heavy chain antibody (HCAb, UniAb) clone ID 358590 (antibody, V domains shown, Heavy chain-only antibody (no light chain), F18 family) VH: EVQLVESGGGLVQPGGSLRLSCAASGFTFSSYSMNWVRQAPGKGLEWVSYISSSSDTIEYADSVKGRFTISRDNAKNSLYLQMNSLRDEDTAVYYCASVGLDFDYRGQGTLVTVSS | 21.8 | 1570
anti-FOLR1 heavy chain antibody (HCAb, UniAb) clone ID 358676 (antibody, V domains shown, Heavy chain-only antibody (no light chain), F18 family) VH: EVQLVESGGGLVQPGGSLRLSCAASGFSFSSYSMKWVRQAPGKGLEWVSYISSSSDTIEYADSVKGRFTISRDNAKNSLYLQMNSLRAEDTAVYYCASVGLDFDYRGQGTLVTVSS | 717 | 980
anti-FOLR1 heavy chain antibody (HCAb, UniAb) clone ID 358647 (antibody, V domains shown, Heavy chain-only antibody (no light chain), F18 family) VH: EVQLVESGGGLVQPGGSLRLSCAASGFSFSSYSMNWVRQAPGKGLEWISYISGSSDTIEYADSVKGRFTISRDNAKNSLYLQMNSLRAEDTAVYYCASVGLDFDYRGQGTLVTVSS | 3 | 920
anti-FOLR1 heavy chain antibody (HCAb, UniAb) clone ID 358608 (antibody, V domains shown, Heavy chain-only antibody (no light chain), F18 family) VH: EVQLVESGGGLVQPGGSLRLSCAASGFSFSSYSMKWVRQAPGKGLEWISYISGSSDTIEYADSVKGRFTISRDNAKNSLYLQMNSLRDEDTAVYYCASVGLDFDYRGQGTLVTVSS | 535 | 1280
anti-FOLR1 heavy chain antibody (HCAb, UniAb) clone ID 358624 (antibody, V domains shown, Heavy chain-only antibody (no light chain), F18 family) VH: EVQLVESGGGLVQPGGSLRLSCAASGFSFSSYSMKWVRQAPGKGLEWVSYISSSSDTIEYADSVKGRFTISRDNAKNSLYLQMNSLRDDDTAVYYCASVGLDFDYRGQGTLVTVSS | 933 | 1670
anti-FOLR1 heavy chain antibody (HCAb, UniAb) clone ID 358656 (antibody, V domains shown, Heavy chain-only antibody (no light chain), F18 family) VH: EVQLVESGGGLVQPGGSLRLSCAASGFSFSSYSMNWVRQAPGKGLEWVSYISSSSDTIEYADSVKGRFTISRDNAKNSLYLQMNSLRDEDTAVYYCASVGLDFDYRGQGTLVTVSS | 21.7 | 1410
anti-FOLR1 heavy chain antibody (HCAb, UniAb) clone ID 358626 (antibody, V domains shown, Heavy chain-only antibody (no light chain), F18 family) VH: EVQLVESGGGLVKPGGSLRLSCAASGFSFSSYSMKWVRQAPGKGLEWVSYISSSSDTIEYADSVKGRFTISRDNAKNSLYLQMNSLRDDDTAVYYCASVGLDFDYRGQGTLVTVSS | 1060 | 1710
anti-FOLR1 heavy chain antibody (HCAb, UniAb) clone ID 358664 (antibody, V domains shown, Heavy chain-only antibody (no light chain), F18 family) VH: EVQLVESGGGLVQPGGSLRLSCAASGFSFSSYSMKWVRQAPGKGLDWVSYISSSSDTIEYADSVKGRFTISRDNAKNSLYLQMNSLRDEDTAVYYCASVGLDFDYRGQGTLVTVSS | 729 | 1470
anti-FOLR1 heavy chain antibody (HCAb, UniAb) clone ID 358655 (antibody, V domains shown, Heavy chain-only antibody (no light chain), F18 family) VH: EVQLVESGGGLVQPGGSLRLSCAASGFTFSSYSMKWVRQAPGKGLEWISYISGSSDTIEYADSVKGRFTISRDNAKNSLYLQMNGLRDEDTAVYYCASVGLDFDYRGQGTLVTVSS | 590 | 926
anti-FOLR1 heavy chain antibody (HCAb, UniAb) clone ID 358596 (antibody, V domains shown, Heavy chain-only antibody (no light chain), F18 family) VH: EVQLVESGGGLVQPGGSLRLSCAASGFTFSSYSMKWVRQAPGKGLEWVSYIDSSSSIIEYADSVKGRFTISRDNAKNSLYLQMNSLRDEDTAVYYCASVGLDFDYRGQGTLVTVSS | 1340 | 1960
anti-FOLR1 heavy chain antibody (HCAb, UniAb) clone ID 358393 (antibody, V domains shown, Heavy chain-only antibody (no light chain), F14 family) VH: EVQLVESGGGLVQPGGSLRLSCAASGFTFSSYSMNWARQAPGKGLEWVSYISSSSSSIYYADSVKGRFTISRDNAKNSLYLQMNSLRAEDTAVYYCARDVTSGIAAAGSAFNIRGQGTLVTVSS | 1.2 | 402
anti-FOLR1 heavy chain antibody (HCAb, UniAb) clone ID 358442 (antibody, V domains shown, Heavy chain-only antibody (no light chain), F14 family) VH: EVQLVESGGGLVKPGGSLRLSCAASGFTFSSYSMNWVRQAPGKGLEWVSYISSSSSYIYYADSVKGRFTISRDNAKNSLYLQMNSLRAEDTAVYYCARDVTSGIAAAGSAFNIRGQGTLVTVSS | 1.2 | 1600
anti-FOLR1 heavy chain antibody (HCAb, UniAb) clone ID 358452 (antibody, V domains shown, Heavy chain-only antibody (no light chain), F14 family) VH: EVQLVESGGGLVQPGGSLRLSCAASGFTFSSYSMNWVRQAPGKGLEWVASISSGSSDIYYADSVKGRFTISRDNAKNSLYLQMNSLRAEDTAVYYCARDVTSGIAAAGSAFNIRGQGTLVTVSS | 1.7 | 1840
anti-FOLR1 heavy chain antibody (HCAb, UniAb) clone ID 358418 (antibody, V domains shown, Heavy chain-only antibody (no light chain), F14 family) VH: EVQLVESGGGLVQPGGSLRLSCAASGFTFSSYSMNWVRQAPGKGLEWVSSISSGSSYIYYADSVKGRFTISRDNAKNSLYLQMNSLRAEDTALYYCARDVTSGIAAAGSAFNIRGQGTLVTVSS | 2080 | 1500
anti-FOLR1 heavy chain antibody (HCAb, UniAb) clone ID 358468 (antibody, V domains shown, Heavy chain-only antibody (no light chain), F14 family) VH: EVQLVESGGGLVKPGGSLRLSCAASGFTFSSYSMNWVRQAPGKGLEWVSSISSSSSYIYYADSVKGRFTISRDNAKNSLYLQMNSLRAEDTAVYYCARDVTSGIAAAGSAFNIRGQGTLVTVSS | 314 | 1670
anti-FOLR1 heavy chain antibody (HCAb, UniAb) clone ID 358464 (antibody, V domains shown, Heavy chain-only antibody (no light chain), F14 family) VH: EVQLVESGGGLVQPGGSLRLSCAASGFTFSSYSMNWVRQAPGKGLEWVSYISSSSSTIYYADSVKGRFTISRDNAKNSLYLQMNSLRAEDTAVYYCARDVTSGIAAAGSAFNIRGQGTLVTVSS | 6.4 | 2100
anti-FOLR1 heavy chain antibody (HCAb, UniAb) clone ID 358480 (antibody, V domains shown, Heavy chain-only antibody (no light chain), F14 family) VH: EVQLVESGGGLVKPGGSLRLSCAASGFTFSSYSMNWVRQAPGKGLEWVSSISSGSTYIYYADSVKGRFTISRDNAKNSLYLQMNSLRAEDTAVYYCARDVTSGIAAAGSAFNIRGQGTLVTVSS | 1200 | 2140
anti-FOLR1 heavy chain antibody (HCAb, UniAb) clone ID 358441 (antibody, V domains shown, Heavy chain-only antibody (no light chain), F14 family) VH: EVQLVESGGGLVQPGGSLRLSCAASGFSFSSYSMNWVRQAPGKGLEWVSSISSGSSYIYYADSVKGRFTISRDNAKNSLYLQMNSLRGEDTAVYYCARDVTSGIAAAGSAFNIRGQGTLVTVSS | 2300 | 1900
anti-FOLR1 heavy chain antibody (HCAb, UniAb) clone ID 358456 (antibody, V domains shown, Heavy chain-only antibody (no light chain), F14 family) VH: EVQLVESGGGLVKPGGSLRLSCAASGFIFSSYSMNWVRQAPGKGLEWVSSISSGSSYIYYADSVKGRFTISRDNAKNSLYLQMNSLRAEDTAVYFCARDVTSGIAAAGSAFNIRGQGTLVTVSS | 2090 | 1870
anti-FOLR1 heavy chain antibody (HCAb, UniAb) clone ID 358396 (antibody, V domains shown, Heavy chain-only antibody (no light chain), F14 family) VH: EVQLVESGGGLVKPGGSLRLSCAASGFTFSSYSMNWVRQAPGKGLEWVSSISSSSSYIYYADSVKGRFTISRDNAKNSLYLQMNSLRAEDTAVYFCARDVTSGIAAAGSAFNIRGQGTLVTVSS | 360 | 1730
anti-FOLR1 heavy chain antibody (HCAb, UniAb) clone ID 358397 (antibody, V domains shown, Heavy chain-only antibody (no light chain), F14 family) VH: EVQLVESGGGLVKPRGSLRLSCEASGFTFSSYSMNWVRQAPGKGLEWVSSISSGSSYIYYADSVKGRFTISRDNAKNSLYLQMNSLRAEDTAVYYCARDVTSGIAAAGSAFNIRGQGTLVTVSS | 331 | 277
anti-FOLR1 heavy chain antibody (HCAb, UniAb) clone ID 358420 (antibody, V domains shown, Heavy chain-only antibody (no light chain), F14 family) VH: EVQLVESGGGLVKPGGSLRLSCAASGFTFSSYSMNWVRQAPGKGLEWVSSISSGSSYIYYADSVKGRFTISRDNANNSLYLQMNSLRAEDTAVYFCARDVTSGIAAAGSAFNIRGQGTLVTVSS | 2260 | 1760
anti-FOLR1 heavy chain antibody (HCAb, UniAb) clone ID 358446 (antibody, V domains shown, Heavy chain-only antibody (no light chain), F14 family) VH: EVQLVESGGGLVKPGGSLRLSCAASGFIFSSYSMNWVRQAPGKGLEWVSSISSGSSYIYYADSVKGRFTISRDDAKNSLYLQMNSLRAEDTAVYFCARDVTSGIAAAGSAFNIRGQGTLVTVSS | 1.5 | 1270
anti-FOLR1 heavy chain antibody (HCAb, UniAb) clone ID 358466 (antibody, V domains shown, Heavy chain-only antibody (no light chain), F14 family) VH: EVQLVESGGGLIQPGGSLRLSCAASGFTFSSYSMNWVRQAPGKGLEWVSSISSGSSYIYYADSVKGRFTISRDNAKNSLYLQMNSLRAEDTAVYYCARDVTSGIAAAGSAFNIRGQGTLVTVSS | 2090 | 1600
anti-FOLR1 heavy chain antibody (HCAb, UniAb) clone ID 358399 (antibody, V domains shown, Heavy chain-only antibody (no light chain), F14 family) VH: EVQLVESGGGLVKPGGSLRLSCVASGFTFSSYSMNWVRQAPGKGLEWVSSISSSSSYIYYADSVKGRFTISRDNAKNSLYLQMNSLRAEDTAVYYCARDVTSGIAAAGSAFNIRGQGTLVTVSS | 330 | 2010
anti-FOLR1 heavy chain antibody (HCAb, UniAb) clone ID 358413 (antibody, V domains shown, Heavy chain-only antibody (no light chain), F14 family) VH: EVQLVESGGGLVQPGGSLRLSCAASGFSFSSYSMNWVRQAPGKGLEWVSSISSSSSYIYYADSVKGRFTISRDNSKNTLYLQMNSLRAEDTAVYYCARDVTSGIAAAGSAFNIRGQGTLVTVSS | 497 | 1810
anti-FOLR1 heavy chain antibody (HCAb, UniAb) clone ID 358416 (antibody, V domains shown, Heavy chain-only antibody (no light chain), F14 family) VH: EVQLVESGGGLVKPGGSLRLSCAASGFTFSSYTMNWVRQAPGKGLEWVSSISSGSSYIYYADSVKGRFTISRDNAKNSLYLQMNSLRAEDTAVYYCARDVTSGIAAAGSAFNIRGQGTLVTVSS | 1820 | 1870
anti-FOLR1 heavy chain antibody (HCAb, UniAb) clone ID 358462 (antibody, V domains shown, Heavy chain-only antibody (no light chain), F14 family) VH: EVQLVESGGGLVQPGGSLRLSCAASGFTFSSYSMNWVRQAPGKGLEWVSSISSGSSYIYYADSVKGRFTISRDNAKNSLYLQMNSLRAEDTAVYYCARDVTSGIAAAGSAFNIRGQGTLVTVSS | 2580 | 2150
anti-FOLR1 heavy chain antibody (HCAb, UniAb) clone ID 358478 (antibody, V domains shown, Heavy chain-only antibody (no light chain), F14 family) VH: EVQLVESGGGLIQPGGSLRLSCAASGFIFSSYSMNWVRQAPGKGLEWVSYISSSSSYIYYADSVKGRFTISRDNAKNSLYLQMNSLRAEDTAVYYCARDVTSGIAAAGSAFNIRGQGTLVTVSS | 1.1 | 427
